Experimental data reported in paper PMC7580981 (2020).

B1: human ANP32A C terminal truncated (huANP32A_165T), purified (GST cleaved) (domain or fragment)
chain: MEMGRRIHLELRNRTPSDVKELVLDNSRSNEGKLEGLTDEFEELEFLSTINVGLTSIANLPKLNKLKKLELSDNRVSGGLEVLAEKCPNLTHLNLSGNKIKDLSTIEPLKKLENLKSLDLFNCEVTNLNDYRENVFKLLPQLTYLDGYDRDDKEAPDSDAEGYVE
B2: human ANP32A, purified (GST cleaved) (natural protein)
chain: MEMGRRIHLELRNRTPSDVKELVLDNSRSNEGKLEGLTDEFEELEFLSTINVGLTSIANLPKLNKLKKLELSDNRVSGGLEVLAEKCPNLTHLNLSGNKIKDLSTIEPLKKLENLKSLDLFNCEVTNLNDYRENVFKLLPQLTYLDGYDRDDKEAPDSDAEGYVEGLDDEEEDEDEEEYDEDAQVVEDEEDEDEEEEGEEEDVSGEEEEDEEGYNDGEVDDEEDEEELGEEERGQKRKREPEDEGEDDD

Key:
[1] = biological target: IBV polymerase trimeric complex (Pol3): PA-His, PB1, PB2 (influenza B virus); assay: SPR
[2] = biological target: two polymerase subunits (PA and PB1) of IBV polymerase (Pol2): PA-His, PB1 (influenza B virus); assay: SPR

| Binder | Kd [1] [µM] | Kd [2] [µM] |
| --- | --- | --- |
| B1 | > 1000 | – |
| B2 | – | > 1000 |
